Assay results from US20150037348A1.

How the values were obtained:
[1] = target: cynomolgus IL-12 (PBMC supernatant) (cynomolgus monkey); experiment: cell-based or functional assay
[2] = target: recombinant human IL-12 (rhIL-12) (human) (UniProt P29459); experiment: cell-based or functional assay
[3] = target: recombinant rhesus IL-12 (rhesus monkey) (UniProt P48091); experiment: cell-based or functional assay
[4] = target: baboon IL-12 (PBMC supernatant) (baboon); experiment: cell-based or functional assay
[5] = target: recombinant murine IL-12 (mouse) (UniProt P43431); experiment: receptor binding assay, 125I-murine IL-12 on 2D6 cells
[6] = target: recombinant murine IL-12 (mouse) (UniProt P43431); experiment: biomolecular interaction assay, C17.15 captured via goat anti-rat IgG, murine IL-12 in solution
[7] = target: recombinant murine IL-12 (mouse) (UniProt P43431); experiment: cell-based or functional assay

recombinant murine IL-12 (mouse), sequence (P43431 23-215, chain 1 of 2): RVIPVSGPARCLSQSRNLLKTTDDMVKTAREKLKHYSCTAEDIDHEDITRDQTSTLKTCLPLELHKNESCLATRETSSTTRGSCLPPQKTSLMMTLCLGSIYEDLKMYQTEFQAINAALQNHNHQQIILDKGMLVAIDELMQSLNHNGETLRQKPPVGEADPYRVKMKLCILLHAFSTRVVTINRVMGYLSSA
recombinant murine IL-12 (mouse), sequence (P43432 23-335, chain 2 of 2, further chain): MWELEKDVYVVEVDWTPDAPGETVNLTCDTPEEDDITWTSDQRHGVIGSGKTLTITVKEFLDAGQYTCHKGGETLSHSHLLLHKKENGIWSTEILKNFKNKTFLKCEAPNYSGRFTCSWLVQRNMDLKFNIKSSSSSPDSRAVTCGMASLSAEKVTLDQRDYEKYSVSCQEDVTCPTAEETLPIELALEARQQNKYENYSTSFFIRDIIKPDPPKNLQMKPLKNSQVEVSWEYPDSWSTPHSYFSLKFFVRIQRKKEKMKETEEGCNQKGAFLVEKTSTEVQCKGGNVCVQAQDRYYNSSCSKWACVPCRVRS
recombinant rhesus IL-12 (rhesus monkey), sequence (P48091 23-219, chain 1 of 2): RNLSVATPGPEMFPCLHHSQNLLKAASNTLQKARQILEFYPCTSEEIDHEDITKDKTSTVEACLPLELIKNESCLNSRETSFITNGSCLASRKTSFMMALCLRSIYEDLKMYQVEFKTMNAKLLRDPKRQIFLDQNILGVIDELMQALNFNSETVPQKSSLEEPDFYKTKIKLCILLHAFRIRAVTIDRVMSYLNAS
recombinant rhesus IL-12 (rhesus monkey), sequence (P48095 23-328, chain 2 of 2, further chain): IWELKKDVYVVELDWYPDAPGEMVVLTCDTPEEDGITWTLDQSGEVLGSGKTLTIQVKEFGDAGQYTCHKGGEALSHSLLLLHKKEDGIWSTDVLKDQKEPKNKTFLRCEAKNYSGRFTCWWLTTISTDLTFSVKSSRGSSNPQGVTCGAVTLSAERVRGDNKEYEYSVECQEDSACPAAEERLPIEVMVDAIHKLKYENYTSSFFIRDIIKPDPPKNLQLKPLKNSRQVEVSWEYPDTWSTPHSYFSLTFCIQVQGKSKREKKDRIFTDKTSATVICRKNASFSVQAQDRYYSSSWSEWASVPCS
recombinant human IL-12 (rhIL-12) (human), sequence (P29459 23-219, chain 1 of 2): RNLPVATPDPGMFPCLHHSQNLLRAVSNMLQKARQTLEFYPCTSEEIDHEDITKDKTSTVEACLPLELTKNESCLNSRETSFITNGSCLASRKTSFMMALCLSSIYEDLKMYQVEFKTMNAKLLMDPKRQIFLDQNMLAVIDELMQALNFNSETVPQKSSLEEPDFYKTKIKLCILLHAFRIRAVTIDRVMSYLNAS
recombinant human IL-12 (rhIL-12) (human), sequence (P29460 23-328, chain 2 of 2, further chain): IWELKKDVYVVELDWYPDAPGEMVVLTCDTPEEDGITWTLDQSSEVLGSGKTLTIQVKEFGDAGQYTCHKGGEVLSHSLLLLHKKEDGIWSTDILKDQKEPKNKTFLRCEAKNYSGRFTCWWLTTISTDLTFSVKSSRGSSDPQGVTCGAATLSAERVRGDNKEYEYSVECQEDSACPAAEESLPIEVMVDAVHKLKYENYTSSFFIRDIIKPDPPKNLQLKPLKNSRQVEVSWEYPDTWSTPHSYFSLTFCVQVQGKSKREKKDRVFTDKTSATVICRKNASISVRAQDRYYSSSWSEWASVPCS

Row | Substance | IC50 (M), bioassay, Cyno IL-12 PBMC sup [1] [M] | IC50 (M), bioassay, Human IL-12 Purified [2] [M] | IC50 (M), bioassay, Rhesus IL-12 Purified [3] [M] | IC50 (M), bioassay, Baboon IL-12 PBMC sup [4] [M] | IC50 [5] [nM] | Kd [6] [nM] | koff [6] [s⁻¹] | kon [6] [M⁻¹ s⁻¹] | IC50 (M), bioassay, Mouse IL-12 Purified [7] [M] | PHA blast IC50 [7] [nM]
1 | C8.6.2 (antibody) | 1.2e-10 | 5e-11 | 1e-10 | 2e-10 |  |  |  |  |  | 
2 | C17.15 (antibody) |  |  |  |  | 0.15 | 0.48 | 0.000184 | 380000 | 3e-11 | 0.014
